This note sets out measurements from publication doi:10.1101/2023.04.25.538284 (bioRxiv, 2023).

In the experiment the target is T1, His-MBP-SIZ1-C (Arabidopsis thaliana, UniProt Q680Q4-3 435-873).
T1 sequence (looked up): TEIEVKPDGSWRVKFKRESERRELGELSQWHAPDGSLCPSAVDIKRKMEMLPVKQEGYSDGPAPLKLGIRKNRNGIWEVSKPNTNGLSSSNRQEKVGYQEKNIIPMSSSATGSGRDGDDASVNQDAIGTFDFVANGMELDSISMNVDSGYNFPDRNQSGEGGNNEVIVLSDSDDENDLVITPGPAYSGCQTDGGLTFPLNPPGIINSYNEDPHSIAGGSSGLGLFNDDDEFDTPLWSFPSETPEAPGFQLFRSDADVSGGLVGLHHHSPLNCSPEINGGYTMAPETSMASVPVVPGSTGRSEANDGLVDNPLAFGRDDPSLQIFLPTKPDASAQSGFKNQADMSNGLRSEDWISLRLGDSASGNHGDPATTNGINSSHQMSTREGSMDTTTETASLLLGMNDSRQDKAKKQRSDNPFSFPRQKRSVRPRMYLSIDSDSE
Kind of experiment: pull-down.

B1: GST-SnRK2.4 (enzyme, Arabidopsis thaliana, UniProt P43291 1-363, looked up)
chain: MDKYELVKDIGAGNFGVARLMKVKNSKELVAMKYIERGPKIDENVAREIINHRSLRHPNIIRFKEVVLTPTHLAIAMEYAAGGELFERICSAGRFSEDEARYFFQQLISGVSYCHAMQICHRDLKLENTLLDGSPAPRLKICDFGYSKSSLLHSRPKSTVGTPAYIAPEVLSRREYDGKMADVWSCGVTLYVMLVGAYPFEDQEDPKNFRKTIQKIMAVQYKIPDYVHISQDCKNLLSRIFVANSLKRITIAEIKKHSWFLKNLPRELTETAQAAYFKKENPTFSLQTVEEIMKIVADAKTPPPVSRSIGGFGWGGNGDADGKEEDAEDVEEEEEEVEEEEDDEDEYDKTVKEVHASGEVRIS
On to B1, for which the binding result is “binds”.

B2: GST-SnRK2.6 (enzyme, Arabidopsis thaliana, UniProt Q940H6 1-362, looked up)
chain: MDRPAVSGPMDLPIMHDSDRYELVKDIGSGNFGVARLMRDKQSNELVAVKYIERGEKIDENVKREIINHRSLRHPNIVRFKEVILTPTHLAIVMEYASGGELFERICNAGRFSEDEARFFFQQLISGVSYCHAMQVCHRDLKLENTLLDGSPAPRLKICDFGYSKSSVLHSQPKSTVGTPAYIAPEVLLKKEYDGKVADVWSCGVTLYVMLVGAYPFEDPEEPKNFRKTIHRILNVQYAIPDYVHISPECRHLISRIFVADPAKRISIPEIRNHEWFLKNLPADLMNDNTMTTQFDESDQPGQSIEEIMQIIAEATVPPAGTQNLNHYLTGSLDIDDDMEEDLESDLDDLDIDSSGEIVYAM
With B2, the binding result is “binds”.
